Data on two compounds can be found in PMC3522794 (Nature chemical biology, 2012).

The target in assay [1] is SNAP-tag-polyproline (PP) peptide fusion (…). Kind of assay: pull-down.
The next assay addresses HCK^Y527F (Homo sapiens, UniProt P08631, Y522F). The assay can be described thus: Pull-down assay to determine SH3 domain accessibility. It counts as binding. The conditions noted are these: inhibitor 5 µM (saturating), kinase 100 nM; mean ± SEM, n=3.

As to “HCK^Y527F (HCK residues 84–531, Y527F, SRC residue numbering) (enzyme)”, the percent of loaded kinase retained on the beads in assay [1] came out at 27%.

Take `Cc1nc(Nc2ncc(C(=O)Nc3c(C)cccc3Cl)s2)cc(N2CCN(CCO)CC2)n1` [Dasatinib, dasatinib]: the “Percent kinase eluted (retained on PP ligand beads), HCK^Y527F” value on HCK^Y527F was found to be 27%.
